Test results reported in article doi:10.1101/096651 (bioRxiv, 2016).

Assays:
Assay in all cases: SEC
[1] = target: Apo-COCP (colorless apoprotein of COCP, OCP-CTD without carotenoid) (Synechocystis sp. PCC 6803) (UniProt P74102)
[2] = target: C-terminal OCP-related Carotenoid Protein (COCP), carotenoid-bound OCP-CTD (Synechocystis sp. PCC 6803) (UniProt P74102)
SEC = target: the molecule itself

## Apo-COCP (colorless apoprotein of COCP, OCP-CTD without carotenoid) (from UniProt P74102 1-317) (domain or fragment)
[1]
  stoichiometry N: 2

## C-terminal OCP-related Carotenoid Protein (COCP), carotenoid-bound OCP-CTD (from UniProt P74102 1-317) (domain or fragment)
[2]
  stoichiometry N: 2

B1: Fluorescence Recovery Protein (FRP) (natural protein)
chain: MLQTAEAPWSQAETQSAHALFRKAYQRELDGLLATVQAQASQITQIDDLWKLHDFLSAKRHEIDGKYDDRQSVIIFVFAQLLKEGLVQAEELTFLAADKQSKIKALARL
SEC
  stoichiometry N: 2
